The values below come from PMC6618058.

The target of experiment [1] is Biotinylated HLA-A*02:01 with the MART-1(26-35) decapeptide ….
Experiment [2] has as its target HLA-A*02:01 with the MART-1(27-35) nonapeptide …, not tagged.

For MEL5 TCR, in experiment [1], the dH is -14 kcal/mol. The substance further showed an MIP‐1β secretion (ELISA) by CD8+ T cells transduced with the MEL5 TCR in response to titrated … presented by T2 cells; sensitivity against that of DMF4 TCR-transduced T cells in experiment [2] of 100 fold.
